Target: recombinant human cathepsin B (human, UniProt P07858 80-333)
Assay: Western blot of recombinant human cathepsin B, goat anti-human IgG-HRP as secondary antibody
From the text: A: polyacrylamide gel electrophoresis of recombinant human cathepsin B (1) and of standards (2); B: Western blot—cathepsin B (1) stained with chimeric 2A2 antibody. Goat anti-human antibody (IgG) conjugated with horseradish peroxidase was used as a secondary antibody. As the substrate 0.05% diaminobenzidine (DAB) and 0.01% of H₂O₂ in 0.05M Tris/HCl buffer, pH 7.5 were used.

B1: chimeric 2A2 antibody, expressed in Chinese hamster ovary (CHO) cells (antibody, V domains shown)
VH: QVQLQQSGAELVRSGASIKLSCTASGFNIKDYYMHWVKQRPEQGLEWIGWIDPENGDTEYAPKFRGKATMTADTSSKTAYLQLSSLTSEDTAVYYCNARRHGYYEMDYWGQGTSVTVSS
VL: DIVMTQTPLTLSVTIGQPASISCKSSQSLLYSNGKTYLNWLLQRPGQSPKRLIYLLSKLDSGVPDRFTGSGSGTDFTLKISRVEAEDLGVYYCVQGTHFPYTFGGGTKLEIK
notes: A secretion leader was used for expression and is not part of the mature protein; also called chimeric antibody 2A2; 2A2 chimeric antibody; not shown: human IgG1 heavy chain constant region (human Cgamma1 region from pUC/hIgG1); human kappa light chain constant region (human Ckappa gene from pUC/hCK)
B1: binds.
